Experiments:
[1] = molecular target: T1, HA-tagged K270Stop striatin (human, UniProt O43815 1-269); experiment: co-IP; anti-HA immunoprecipitates (12CA5 with protein A-Sepharose, or F7 anti-HA-agarose when probing for Mst3 or Mst4; 1.5 h, 4°C) of lysates (1% Nonidet P-40, 0.135 M NaCl, 10% glycerol, 20 mM Tris pH 8.0) of HEK293 cells transfected with HA-striatins; endogenous partners by immunoblot, partner/HA-striatin ratio by chemilumimager against wild type; 50 mM NaF and 100 nM okadaic acid in the lysis buffer in the …; settings: partners not purified
T1 construct: striatin, human, C-terminal truncation by a stop codon at K270; source: HEK293, transfected, in lysate; not shown: HA, N-terminal, kept
T1 sequence (looked up): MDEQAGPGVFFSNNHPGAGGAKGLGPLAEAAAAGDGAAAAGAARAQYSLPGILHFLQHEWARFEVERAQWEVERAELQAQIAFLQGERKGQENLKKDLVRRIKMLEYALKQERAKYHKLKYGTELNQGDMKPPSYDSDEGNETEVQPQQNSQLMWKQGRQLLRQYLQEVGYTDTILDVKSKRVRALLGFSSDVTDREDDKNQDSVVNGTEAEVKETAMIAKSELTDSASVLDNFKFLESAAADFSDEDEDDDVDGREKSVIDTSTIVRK

[2] = molecular target: T2, HA-tagged F457Stop striatin (human, UniProt O43815 1-456); experiment: as above; settings: partners not purified
T2 construct: striatin, human, C-terminal truncation by a stop codon at F457 (loss of seven of eight WD-repeats); residues 1-456 by the mutant's name; source: HEK293, transfected, in lysate; not shown: HA, N-terminal, kept
T2 sequence (looked up): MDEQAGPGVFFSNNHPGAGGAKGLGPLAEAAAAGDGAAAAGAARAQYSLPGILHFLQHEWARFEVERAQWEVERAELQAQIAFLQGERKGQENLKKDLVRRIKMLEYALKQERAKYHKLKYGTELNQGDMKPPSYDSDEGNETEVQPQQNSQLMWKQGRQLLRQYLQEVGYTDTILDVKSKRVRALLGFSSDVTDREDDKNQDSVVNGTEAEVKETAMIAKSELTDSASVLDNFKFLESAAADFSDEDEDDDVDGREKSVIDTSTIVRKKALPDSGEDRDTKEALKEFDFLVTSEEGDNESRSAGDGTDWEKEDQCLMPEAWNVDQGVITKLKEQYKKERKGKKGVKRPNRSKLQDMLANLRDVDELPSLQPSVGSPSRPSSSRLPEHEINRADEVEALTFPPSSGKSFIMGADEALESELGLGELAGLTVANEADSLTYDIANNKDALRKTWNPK

percent reduction in binding against wild-type striatin [1]: 45%
percent reduction in binding against wild-type striatin [2]: 29%
B1: Mob3/phocein (natural protein, human (endogenous in HEK293), UniProt Q9Y3A3 1-225, looked up)
chain: MVMAEGTAVLRRNRPGTKAQDFYNWPDESFDEMDSTLAVQQYIQQNIRADCSNIDKILEPPEGQDEGVWKYEHLRQFCLELNGLAVKLQSECHPDTCTQMTATEQWIFLCAAHKTPKECPAIDYTRHTLDGAACLLNSNKYFPSRVSIKESSVAKLGSVCRRIYRIFSHAYFHHRQIFDEYENETFLCHRFTKFVMKYNLMSKDNLIVPILEEEVQNSVSGESEA
notes: source: endogenous, HEK293 lysate
